# Data from the DeepSol protein solubility set.
# Test: soluble on expression in E. coli; label from the status in PepcDB or PDB records
row,Sequence,soluble on expression in E. coli
1,MAEANPRRGKMRFRRNAASFPGNLHLVLVLRPTSFLQRTFTDIGFWFSQEDFMPKLPVVMLSSVSDLLTYIDDKQLTPELGGTLQYCHSEWIIFRNAIENFALTVKEMAQMLQSFGTELAETELPDDIPSIEEILAIRAERYHLLKNDITAVTKEGKILLTNLEVPDTEGAVSSRLECHRQISGDWQTINKLLTQVHDMETAFDGFWEKHQLKMEQYLQLWKFEQDFQQLVTEVEFLLNQQAELADVTGTIAQVKQKIKKLENLDENSQELLSKAQFVILHGHKLAANHHYALDLICQRCNELRYLSDILVNEIKAKRIQLSRTFKMHKLLQQARQCCDEGECLLANQEIDKFQSKEDAQKALQDIENFLEMALPFINYEPETLQYEFDVILSPELKVQMKTIQLKLENIRSIFENQQAGFRNLADKHVRPIQFVVPTPENLVTSGTPFFSSKQGKKTWRQNQSNLKIEVVPDCQEKRSSGPSSSLDNGNSLDVLKNHVLNELIQTERVYVRELYTVLLGYRAEMDNPEMFDLMPPLLRNKKDILFGNMAEIYEFHNDIFLSSLENCAHAPERVGPCFLERKDDFQMYAKYCQNKPRSETIWRKYSECAFFQECQRKLKHRLRLDSYLLKPVQRITKYQLLLKELLKYSKDCEGSALLKKALDAMLDLLKSVNDSMHQIAINGYIGNLNELGKMIMQGGFSVWIGHKKGATKMKDLARFKPMQRHLFLYEKAIVFCKRRVESGEGSDRYPSYSFKHCWKMDEVGITEYVKGDNRKFEIWYGEKEEVYIVQASNVDVKMTWLKEIRNILLKQQELLTVKKRKQQDQLTERDKFQISLQQNDEKQQGAFISTEETELEHTSTVVEVCEAIASVQAEANTVWTEASQSAEISEEPAEWSSNYFYPTYDENEEENRPLMRPVSEMALLY,soluble
2,MHWGVGFASSRPCVVDLSWNQSISFFGWWAGSEEPFSFYGDIIAFPLQDYGGIMAGLGSDPWWKKTLYLTGGALLAAAAYLLHELLVIRKQQEIDSKDAIILHQFARPNNGVPSLSPFCLKMETYLRMADLPYQNYFGGKLSAQGKMPWIEYNHEKVSGTEFIIDFLEEKLGVNLNKNLGPHERAISRAVTKMVEEHFYWTLAYCQWVDNLNETRKMLSLSGGGPFSNLLRWVVCHITKGIVKREMHGHGIGRFSEEEIYMLMEKDMRSLAGLLGDKKYIMGPKLSTLDATVFGHLAQAMWTLPGTRPERLIKGELINLAMYCERIRRKFWPEWHHDDDNTIYESEESSEGSKTHTPLLDFSFYSRTETFEDEGAENSFSRTPDTDFTGHSLFDSDVDMDDYTDHEQCK,not soluble
3,MTQETFTATTRVKRGLADMLKGGVIMDVVTPEQARIAEDAGASAVMALERVPADIRAQGGVARMSDPDLIEGIVNAVSIPVMAKARIGHFVEAQILESLGVDFIDESEVLSPADYVNHIDKWNFDVPFVCGATNLGEALRRITEGAAMIRSKGEAGTGDVSEAVKHLRTIRGEINRLRSMDEDQLYVAAKEIQAPYDLVREVAATGKLPVTLFVAGGVATPADAALVMQMGAEGVFVGSGIFKSGNPAARAAAIVKATTMYDDPAAIAEVSRGLGEAMVGINVADVPAPHRLAERGW,not soluble
4,ATHYSVADRWGNAVSVTYTINASYGSAASIDGAGFLLNNEMDDFSIKPGNPNLYGLVGGDANAIEANKRPLSSMSPTIVLKNNKVFLVVGSPGGSRIITTVLQVISNVIDYNMNISEAVSAPRFHMQWLPDELRIEKFGMPADVKDNLTKMGYQIVTKPVMGDVNAIQVLPKTKGSVFYGSTDPRKEF,soluble
5,RAKQQAAKSERRVRELTEATNDILWEFTADLSEVLVINSAYEDIWGRSVAKLRENPHDFLNGIHPEDRELMKDTMQSLMDGESADVECRVNATEEYQRWVWIQGEPITNDAGETVRVAGFARDIT,soluble
6,MWLRDPFPRLYPDGDFQMACDRFFGNPYDSDNWVNGGFTYVRSNNRSIEFYKFWHKSRLDYPDLHDQDVFNRIKHEPFISEIGIQMRFFDTVYFGGFCQTSRDINLVCTMHANCCIGLDKKLHDLNLVLDDWRKYLSLSEPVQNTTWSVPMKCLED,not soluble
7,MAYQRIRQPKLSDVIEQELERLIVEGTLSPGQQLPPERELAKQFEVSRPSIREAIQRLEAKRLLTRRQGGGTFVSDRIWQSFSDPLLNLLSSHSETQLDLLEARHALEGICAYFAALRGTEEDFARIQHCVTRIAEAQALNNVDEEAERVMAFLIAITEAAHNVVLLHIVRSLSPLLEQNIRQNFKLLHRRPEAVEKVSKHRANIVDAIVSGQPEKAREMSHSHLAYIEETLLDLTREQTRRERSLRRIQQGNEPQ,soluble
8,MSLEPKIVRFDLGKEYIILTSALYPEGIIRVNQICSIFVDKSYCSGNPWGDVINWCPSKSAIMFMTAAKNYTFKETDWGKFFISAGIGRSGEDAGCTINIGVFVDKGLNINGLVDLIRTVTEAKAGALRDLGYKFTGTVSDAIAVGSLPGNEYFIGPGTELGKKIAYDIRNTIVELLFKGDDEGHHHHHH,soluble
9,MIKPLTSSQEEVLKALNDDKYQIVGVFGPTGTGKTLLTLSYGIDVIKQGKFKKFIIVKPIVDIVTKKEITATELPNYHEVILSYIKDVLGPEYSATVDELYKSGRIEILDSRLLRGRTFDDSIIFIDEVQELQPESIIELIIRIGRNSKLVVAGDPVFQSLQMKTFKDPSELVREVLLNEEDAKVIDLGVKDIIRAGAKRGLRLLIEYRLRSRILSEEENKVLNVTKAHAPDADIITVVDLSEEKKKLGLDNLTTVPDSIIVVKEGNIGRLVGKGGERINSTEKEIGKKLRALELSLDFKEYIRAVHPLPWVVKHIEDADFKGNELVVQIKKETGAFMGQKGSYVRFVDEAIRKLLGVGIRVIAKENENS,soluble
10,MSLLNQKIQNPNPDELMIEVDLCYELDPYELKLDEMIEAEPEPEMIEGLPASDALTPADRYLELFEHVQSAKIFPDSKTFPDCAPKMDPLDILIRYRKVRRHRDFDLRKFVENHFWLPEVYSSEYVSDPQNSLKEHIDQLWPVLTREPQDHIPWSSLLALPQSYIVPGGRFSETYYWDSYFTMLGLAESGREDLLKCMADNFAWMIENYGHIPNGNRTYYLSRSQPPVFALMVELFEEDGVRGARRYLDHLKMEYAFWMDGAESLIPNQAYRHVVRMPDGSLLNRYWDDRDTPRDESWLEDVETAKHSGRPPNEVYRDLRAGAASGWDYSSRWLRDTGRLASIRTTQFIPIDLNAFLFKLESAIANISALKGEKETEALFRQKASARRDAVNRYLWDDENGIYRDYDWRREQLALFSAAAIVPLYVGMANHEQADRLANAVRSRLLTPGGILASEYETGEQWDKPNGWAPLQWMAIQGFKMYGDDLLGDEIARSWLKTVNQFYLEQHKLIEKYHIADGVPREGGGGEYPLQDGFGWTNGVVRRLIGLYGEPEGGSHHHHHH,soluble
11,NTGIVSSFFTYTGPAHGTQWDEIDIEFLGKDTTKVQFNYYTNGVGGHEKVISLGFDASKGFHTYAFDWQPGYIKWYVDGVLKHTATANIPSTPGKIMMNLWNGTGVDDWLGSYNGANPLYAEYDWVKYTSNQTGGSFFEPFNSYNSGTWEKADGYSNGGVFNCTWRANNVNFTNDGKLKLGLTSSAYNKFDCAEYRSTNIYGYGLYEVSMKPAK,soluble
12,MSETFTSVSQEEAGFRERARLSFDLDADICVIGAGLAGLSIALEAARLGASVAVLEGRHIGWNASGNQLGTVMPGFALPLTDLIERIGFEDARELWTLSKEGAEFVRANATEENMPGIAPSDGVLEVSNVDTGDRLISRLQMLHEDFDTEVEGWQVDRVRDVLKTDRYFHGVYYPKAFQVDGRKYVHGLAALARRAGARIFEDTPVVSIDHSGIRKRIVTPSARLRATHIVLAGNIHLGAPLRRLSETLLPVWRYAGITAPLGERVHEIIAFKGSVMDSDGVDHFRIVDGDRLMWESPETTWAARPQRFAGGVRRRIRSIFPQFGNVEIADMFGGATGQTVHGMPQIGQLRKGLWVASGFGRQGMNTSAMAGQMIARSILWGDERWRLFSPFELVWAGGATGRVAGQLVGIWGRASSAAAGTLARYRERARVKDREREARLAEANRAAGTGPRRPPPGVRPRPAPPPKPATEALEPASHDDSVSQLEHHHHHH,not soluble
13,MGSDKIHHHHHHEADNYEPPKVDLKDQIPIILIHGSGGNASSLDKMADQLMNEYRSSNEALTMTVNSEGKIKFEGKLTKDAKRPIIKFGFEQNQATPDDWSKWLKIAMEDLKSRYGFTQMDGVGHSNGGLALTYYAEDYAGDKTVPTLRKLVAIGSPFNDLDPNDNGMDLSFKKLPNSTPQMDYFIKNQTEVSPDLEVLAIAGELSEDNPTDGIVPTISSLATRLFMPGSAKAYIEDIQVGEDAVHQTLHETPKSIEKTYWFLEKFKTDETVIQLDYK,not soluble
